The chains are these.
B1: Cps60/Bre2 (natural protein, S. cerevisiae, UniProt P43132 1-505, looked up)
chain: MKLGIIPYQEGTDIVYKNALQGQQEGKRPNLPQMEATHQIKSSVQGTSYEFVRTEDIPLNRRHFVYRPCSANPFFTILGYGCTEYPFDHSGMSVMDRSEGLSISRDGNDLVSVPDQYGWRTARSDVCIKEGMTYWEVEVIRGGNKKFADGVNNKENADDSVDEVQSGIYEKMHKQVNDTPHLRFGVCRREASLEAPVGFDVYGYGIRDISLESIHEGKLNCVLENGSPLKEGDKIGFLLSLPSIHTQIKQAKEFTKRRIFALNSHMDTMNEPWREDAENGPSRKKLKQETTNKEFQRALLEDIEYNDVVRDQIAIRYKNQLFFEATDYVKTTKPEYYSSDKRERQDYYQLEDSYLAIFQNGKYLGKAFENLKPLLPPFSELQYNEKFYLGYWQHGEARDESNDKNTTSAKKKKQQQKKKKGLILRNKYVNNNKLGYYPTISCFNGGTARIISEEDKLEYLDQIRSAYCVDGNSKVNTLDTLYKEQIAEDIVWDIIDELEQIALQQ
notes: Cps60/Bre2, subunit of COMPASS, S. cerevisiae, full length; source: S. cerevisiae (strain yCOS2), overexpressed from the GAL1-10 promoter; in lysate for the TAP purification; then co-purified with TAP-Set1 as the COMPASS complex
B5: Cps50/Swd1 (natural protein, S. cerevisiae, UniProt P39706 1-426, looked up)
chain: MNILLQDPFAVLKEHPEKLTHTIENPLRTECLQFSPCGDYLALGCANGALVIYDMDTFRPICVPGNMLGAHVRPITSIAWSPDGRLLLTSSRDWSIKLWDLSKPSKPLKEIRFDSPIWGCQWLDAKRRLCVATIFEESDAYVIDFSNDPVASLLSKSDEKQLSSTPDHGYVLVCTVHTKHPNIIIVGTSKGWLDFYKFHSLYQTECIHSLKITSSNIKHLIVSQNGERLAINCSDRTIRQYEISIDDENSAVELTLEHKYQDVINKLQWNCILFSNNTAEYLVASTHGSSAHELYIWETTSGTLVRVLEGAEEELIDINWDFYSMSIVSNGFESGNVYVWSVVIPPKWSALAPDFEEVEENVDYLEKEDEFDEVDEAEQQQGLEQEEEIAIDLRTREQYDVRGNNLLVERFTIPTDYTRIIKMQSS
notes: Cps50/Swd1, WD40 repeat subunit of COMPASS, S. cerevisiae, full length; source: S. cerevisiae (strain yCOS2), overexpressed from the GAL1-10 promoter; in lysate for the TAP purification; then co-purified with TAP-Set1 as the COMPASS complex

Assay [1] has as its target T1, Set1 (S. cerevisiae, UniProt P38827 1-1080).
T1 construct: Set1, histone H3K4 methyltransferase subunit of COMPASS, S. cerevisiae, full length; also called TAP-Set1; TAP-SET1; source: S. cerevisiae (strain yCOS2), overexpressed from the GAL1-10 promoter with the six Cps subunits; in lysate for the TAP purification; then purified as the COMPASS complex (IgG-Sepharose, TEV, calmodulin-Sepharose, glycerol gradient or GraFix); not shown: TAP, N-terminal, kept
T1 sequence (looked up): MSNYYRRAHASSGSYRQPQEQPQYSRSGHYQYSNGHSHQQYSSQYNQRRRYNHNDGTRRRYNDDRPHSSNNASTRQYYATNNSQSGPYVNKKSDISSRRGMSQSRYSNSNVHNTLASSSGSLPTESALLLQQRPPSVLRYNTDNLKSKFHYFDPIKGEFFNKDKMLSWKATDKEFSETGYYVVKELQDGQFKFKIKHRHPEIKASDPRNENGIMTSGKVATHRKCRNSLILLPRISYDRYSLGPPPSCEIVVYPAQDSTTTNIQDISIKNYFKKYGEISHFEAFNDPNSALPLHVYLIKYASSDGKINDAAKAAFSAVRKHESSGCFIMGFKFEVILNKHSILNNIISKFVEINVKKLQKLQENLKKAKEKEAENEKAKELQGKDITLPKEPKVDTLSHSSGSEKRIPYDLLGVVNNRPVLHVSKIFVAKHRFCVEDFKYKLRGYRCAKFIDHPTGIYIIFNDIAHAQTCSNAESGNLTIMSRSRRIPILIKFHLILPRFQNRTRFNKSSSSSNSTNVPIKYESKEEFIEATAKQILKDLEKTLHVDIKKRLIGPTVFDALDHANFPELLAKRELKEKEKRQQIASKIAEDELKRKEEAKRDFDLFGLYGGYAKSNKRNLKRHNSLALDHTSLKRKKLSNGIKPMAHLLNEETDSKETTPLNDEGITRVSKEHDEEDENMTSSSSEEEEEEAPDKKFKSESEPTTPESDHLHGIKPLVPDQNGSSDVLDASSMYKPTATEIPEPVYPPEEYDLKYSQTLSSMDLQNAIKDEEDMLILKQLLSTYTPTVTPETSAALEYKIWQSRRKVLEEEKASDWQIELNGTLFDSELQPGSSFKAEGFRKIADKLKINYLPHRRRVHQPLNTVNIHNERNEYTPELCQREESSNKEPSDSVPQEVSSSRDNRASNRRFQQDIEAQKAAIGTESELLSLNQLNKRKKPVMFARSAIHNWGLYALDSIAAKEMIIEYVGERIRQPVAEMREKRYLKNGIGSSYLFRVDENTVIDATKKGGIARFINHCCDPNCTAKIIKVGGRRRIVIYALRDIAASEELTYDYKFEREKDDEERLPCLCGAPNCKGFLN
As to the kind of experiment: tandem affinity purification (TAP), SDS-PAGE; yeast lysate; TAP-Set1 held on IgG-Sepharose, washed with 350 mM NaCl, TEV elution, calmodulin-Sepharose, EGTA elution, then glycerol gradient centrifugation; subunits seen by SDS-PAGE. Particulars: partners not purified.

Assay [2] addresses B1. Kind of assay: cross-linking; purified COMPASS from the glycerol gradient cross-linked with 1 mM disuccinimidyl suberate (DSS), on ice 2 h; trypsin digest, LC-MS/MS, pLink and xlinkx (XL-MS). Particulars: both partners purified.
The target of assay [3] is T1, Set1. The description is as above. The note with it: both partners purified.
Assay [4] concerns the target T1, Set1. As to the kind of experiment: cryo-EM structure; complete COMPASS after GraFix (glutaraldehyde), map at 10.0 Å; subunits placed by DID, PA-NZ-1 Fab and eGFP labelling and by docking of homology models. Particulars: both partners purified.
The target of assay [5] is B5. The description is as above. The note with it: both partners purified.

Turning to B1, the binding result in assay [1] is “binds”.

B2: Cps25/Sdc1 (natural protein, S. cerevisiae, UniProt Q03323 1-175, looked up)
chain: MNESENSPQHNEVTVPMVEDTSSNADIPMEQIQREDNKNYDKHDNECFDMNGNHNNNSDNLQFDSVPSSATKDLKNIKSVTNQNVKIEESSSTNSVIEESSEPKISKLENVNLAATVGGSQTRKYLNTNVTPHLLAGMRLIAVQQPEDPLRVLGEYLIEQSNILKSGEKESNASK
notes: Cps25/Sdc1, subunit of COMPASS, S. cerevisiae, full length; source: S. cerevisiae (strain yCOS2), overexpressed from the GAL1-10 promoter; in lysate for the TAP purification; then co-purified with TAP-Set1 as the COMPASS complex
For the molecule B2, the binding result in assay [2] and in assay [3] was “binds” in each case.

B3: Cps40/Spp1 (natural protein, S. cerevisiae, UniProt Q03012 1-353, looked up)
chain: MSLPQWCPPHSTLKRNPTTGEDVYCICKRPDYGELMVGCDGCDDWFHFTCLHIPEQFKDLVFSFYCPYCQAGITGKNKDAIINGEGSLPKTLWKRKCRISDCYKPCLQDSKYCSEEHGREFVNDIWSRLKTDEDRAVVKKMVEQTGHIDKFKKFGQLDFIDNNIVVKTDDEKEIFDQIVVRDMTLKTLEDDLQEVQEISLPLFKKKLELLEVYLGWLDNVYTEMRKLDDDAASHVECGKEDSKGTKRKKKKNSSRSRARKNICGYCSTYERIPCSVEEFVRDFGSNEEATKIHEVCTKWKCNRHLDWVSTNQEQYLQQIDSLESMQERLQHLIQARKKQLNIQYYEEILRRGL
notes: Cps40/Spp1, subunit of COMPASS, S. cerevisiae, full length; source: S. cerevisiae (strain yCOS2), overexpressed from the GAL1-10 promoter; in lysate for the TAP purification; then co-purified with TAP-Set1 as the COMPASS complex
As for B3, in assay [3], the binding result is listed as “binds”.

B4: Cps35/Swd2 (natural protein, S. cerevisiae, UniProt P36104 1-329, looked up)
chain: MTTVSINKPNLLKFKHVKSFQPQEKDCGPVTSLNFDDNGQFLLTSSSNDTMQLYSATNCKFLDTIASKKYGCHSAIFTHAQNECIYSSTMKNFDIKYLNLETNQYLRYFSGHGALVNDLKMNPVNDTFLSSSYDESVRLWDLKISKPQVIIPSLVPNCIAYDPSGLVFALGNPENFEIGLYNLKKIQEGPFLIIKINDATFSQWNKLEFSNNGKYLLVGSSIGKHLIFDAFTGQQLFELIGTRAFPMREFLDSGSACFTPDGEFVLGTDYDGRIAIWNHSDSISNKVLRPQGFIPCVSHETCPRSIAFNPKYSMFVTADETVDFYVYDE
notes: Cps35/Swd2, WD40 repeat subunit of COMPASS, S. cerevisiae, full length; source: S. cerevisiae (strain yCOS2), overexpressed from the GAL1-10 promoter; in lysate for the TAP purification; then co-purified with TAP-Set1 as the COMPASS complex
For the molecule B4, the binding result in assay [3] is reported as “binds”.
Consider B5, for which the binding result in assay [4] was “binds”.

B6: Cps30/Swd3 (natural protein, S. cerevisiae, UniProt P38123 1-315, looked up)
chain: MFQFVTPVGTQNGLKATCAKISPDGQFLAITQGLNILIYDINRRTVSQTLVTSHARPFSELCWSPDGQCIATASDDFSVEIIHLSYGLLHTFIGHTAPVISLTFNRKGNLLFTSSMDESIKIWDTLNGSLMKTISAHSEAVVSVDVPMNDSSILSSGSYDGLIRIFDAETGHCLKTLTYDKDWKRENGVVPISQVKFSENARYLLVKSLDGVVKIWDCIGGCVVRTFQVQPLEKGVLHHSCGMDFLNPEDGSTPLVISGYENGDIYCWNSDTKSLLQLLDGSLYHHSSPVMSIHCFGNIMCSLALNGDCCLWRWV
notes: Cps30/Swd3, WD40 repeat subunit of COMPASS, S. cerevisiae, full length; source: S. cerevisiae (strain yCOS2), overexpressed from the GAL1-10 promoter; in lysate for the TAP purification; then co-purified with TAP-Set1 as the COMPASS complex
Regarding B6, the binding result in assay [5] and in assay [4] was “binds” each time.

The values are drawn from PMC6258710, “Architecture and subunit arrangement of the complete Saccharomyces cerevisiae COMPASS complex” (Scientific Reports, 2018).
